Target: HLA-A2 (human)
Assay: assembly assay, T2 cells, [35S]-labelled class I MHC, immunoprecipitation and IEF

Row | Binder | C50 (peptide concentration for half maximal binding)
1 | RLQEERTCKV (Synthetic peptide bought from Research Genetics, >80% purity) [ML-IAP245 (RLQEERTCKV)] | 1 µM
2 | LTAEVPPEL (Synthetic peptide bought from Research Genetics, >80% purity) [ML-IAP99 (LTAEVPPEL)] | 0.9 µM
3 | PLTAEVPPEL (Synthetic peptide bought from Research Genetics, >80% purity) [ML-IAP98 (PLTAEVPPEL)] | > 100 µM
4 | GMGSEELRL (Synthetic peptide bought from Research Genetics, >80% purity) [ML-IAP83 (GMGSEELRL)] | 30 µM
5 | QILGQLRPL (Synthetic peptide bought from Research Genetics, >80% purity) [ML-IAP54 (QILGQLRPL)] | 1 µM

Further lines, results first:

Row | C50 (peptide concentration for half maximal binding) | Binder
6 | > 100 µM | VLEPPGARDV (Synthetic peptide bought from Research Genetics, >80% purity) [ML-IAP230 (VLEPPGARDV)]
7 | 10 µM | LLRSKGRDFV (Synthetic peptide bought from Research Genetics, >80% purity) [ML-IAP154 (LLRSKGRDFV)]
8 | 0.2 µM | RLASFYDWPL (Synthetic peptide bought from Research Genetics, >80% purity) [ML-IAP90 (RLASFYDWPL)]
9 | 20 µM | QLCPICRAPV (Synthetic peptide bought from Research Genetics, >80% purity) [ML-IAP280 (QLCPICRAPV)]
10 | 1 µM | SLGSPVLGL (Synthetic peptide bought from Research Genetics, >80% purity) [ML-IAP34 (SLGSPVLGL)]
